The values that follow come from publication PMC7913777, “Allosteric effects of SSB C-terminal tail on assembly of E. coli RecOR proteins” (Nucleic Acids Research, 2021).

Experiment [1] deals with T1, E. coli RecR tetramer (E. coli, UniProt P0A7H6 1-201).
T1 construct: RecR, E. coli; tetramer 87.8 kDa; Same preparation as m2; the tetrameric state, which is the one found in complexes with RecO; also called RecR4; R4; source: E. coli BL21 Rosetta 2(DE3)pLysS, purified (Ni-NTA)
T1 sequence (looked up): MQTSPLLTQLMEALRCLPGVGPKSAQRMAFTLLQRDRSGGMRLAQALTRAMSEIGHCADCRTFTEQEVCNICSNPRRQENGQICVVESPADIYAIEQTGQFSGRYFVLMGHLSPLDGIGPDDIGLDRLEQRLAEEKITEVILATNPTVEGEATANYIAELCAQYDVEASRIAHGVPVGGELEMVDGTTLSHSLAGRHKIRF
The experiment can be described thus: AUC; sedimentation equilibrium, RecO 1.5 μM + RecR 6 μM monomer (1:4), no P15, buffer BTP (pH 8), 25°C, 18 000, 23 000, 28 000 rpm; two-species model, free RecR dimer fixed.

For experiment [2], the target named is T1, E. coli RecR tetramer. Put plainly: AUC; sedimentation velocity, RecO (1.5 μM) titrated with RecR (1.5-9 μM monomer; 1:1 to 1:6), no P15, buffer BTP (pH 8.0), 25°C; K3 and K4 from SedAnal simulations (Scheme 1) that best describe the c(s) profiles.
Experiment [3] addresses T1, E. coli RecR tetramer. Put plainly: AUC; sedimentation equilibrium, RecO 1.5 μM + RecR 1.5 μM monomer (1:1), no P15, buffer BTP (pH 8), 25°C, 18 000, 23 000, 28 000 rpm; two-species model, free RecO fixed.
Experiment [4] has as its target Escherichia coli RecR protein (E. coli) (UniProt P0A7H6). Put plainly: AUC; sedimentation equilibrium of RecR alone, buffer BTP pH 8.0, 50 mM NaCl + 10 mM MgCl2, 25°C; dimers to tetramer.
For experiment [5] the target is unchanged. The experiment can be described thus: AUC; sedimentation equilibrium of RecR alone, 4, 8 and 12 μM (monomer), buffer BTP pH 7.0, 50 mM NaCl, 25°C; dimers to tetramer, Lobs = [R4]/[R2]^2.
The target is the same in experiment [6]. Put plainly: AUC; sedimentation velocity of RecR alone, eight concentrations 2-20 μM (monomer), buffer BTP (pH 8.0), 25°C, 233 nm.
The target is the same in experiment [7]. Put plainly: AUC; sedimentation equilibrium of RecR alone, 4, 8 and 12 μM (monomer), buffer BTP pH 6.4, 50 mM NaCl, 25°C; dimers to tetramer, Lobs = [R4]/[R2]^2.
For experiment [8] the target is unchanged. Put plainly: AUC; sedimentation equilibrium of RecR alone, buffer BTP pH 8.0 with 200 mM NaCl, 25°C; dimers to tetramer.
Experiment [9] has the same target. Put plainly: AUC; sedimentation equilibrium of RecR alone, 4, 8 and 12 μM (monomer), buffer BTP pH 9.0, 50 mM NaCl, 25°C; dimers to tetramer, Lobs = [R4]/[R2]^2.
For experiment [10] the target is unchanged. The experiment can be described thus: AUC; sedimentation equilibrium of RecR alone, 4, 8 and 12 μM (monomer), buffer BTP pH 8.5, 50 mM NaCl, 25°C; dimers to tetramer, Lobs = [R4]/[R2]^2.
Experiment [11] shares this target. Put plainly: AUC; sedimentation equilibrium of RecR alone, buffer BTP, 37°C; dimers to tetramer.
For experiment [12] the target is unchanged. Put plainly: AUC; sedimentation equilibrium of RecR alone, 4, 8 and 12 μM (monomer), buffer BTP pH 8.0, 50 mM NaCl, 25°C; dimers to tetramer, Lobs = [R4]/[R2]^2; at 8 μM also a two-species model with the second mass floated.
Experiment [13] shares this target. Put plainly: AUC; sedimentation equilibrium of RecR alone, 4, 8 and 12 μM (monomer), buffer BTP pH 7.5, 50 mM NaCl, 25°C; dimers to tetramer, Lobs = [R4]/[R2]^2.
Experiment [14] concerns the target T1, E. coli RecR tetramer. The experiment can be described thus: AUC; sedimentation equilibrium, RecR 2 μM monomer, RecO 6 μM (3:1), P15 36 μM, buffer BTP (pH 8.0), 25°C, 19 000, 24 000, 29 000 rpm; two-species model, RecO-P15 fixed at 29.1 kDa. The following applies: both partners purified.
The target in experiment [15] is T1, E. coli RecR tetramer. Put plainly: AUC; sedimentation equilibrium, RecO 1.5 μM + RecR 1.5 μM (1:1) with P15 (9 μM), buffer BTP (pH 8), 25°C, 19 000, 24 000, 29 000 rpm; two-species model. The conditions noted are these: both partners purified.
The target in experiment [16] is T1, E. coli RecR tetramer. The experiment can be described thus: AUC; sedimentation equilibrium, RecO 1.5 μM + RecR 6 μM (1:4) with P15 (9 μM), buffer BTP (pH 8), 25°C, 19 000, 24 000, 29 000 rpm; one-species model. The conditions noted are these: both partners purified.
The target of experiment [17] is T2, Escherichia coli RecO protein (E. coli, UniProt P0A7H3 1-242).
T2 chain: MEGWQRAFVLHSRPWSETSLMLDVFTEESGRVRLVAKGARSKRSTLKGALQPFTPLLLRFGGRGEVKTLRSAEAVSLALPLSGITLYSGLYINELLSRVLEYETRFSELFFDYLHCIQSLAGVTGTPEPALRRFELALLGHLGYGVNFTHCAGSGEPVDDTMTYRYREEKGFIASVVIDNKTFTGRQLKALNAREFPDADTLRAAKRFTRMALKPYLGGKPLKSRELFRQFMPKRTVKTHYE
The experiment can be described thus: ITC; pH 8, 25°C. (In general: In ITC the heat of successive injections is recorded.)

In experiment [18] the target is T3, RecOR complex (pre-mixed RecO and RecR, 1:4 molar ratio) (E. coli, UniProt P0A7H3 1-242; P0A7H6 1-201).
T3 construct: RecO, E. coli; as m1; RecR, E. coli; as m2; also called pre-mixed solution of RecO (2 μM) and RecR (8 μM monomer); source: purified RecO and purified RecR (both from E. coli), pre-mixed; copies: + 4
T3 sequence (looked up) 1: T2 chain
T3 sequence (looked up) 2: T1 sequence (looked up)
Put plainly: ITC; P15 (50 μM) titrated into a pre-mixed solution of RecO (2 μM) and RecR (8 μM monomer), buffer BTP, pH 8.0, 25°C. The conditions noted are these: both partners purified.

Values joined by “and” are separate entries in the source; they are usually repeats but may differ in a detail not shown here. Equal entries are not always repeated.

Turning to “Escherichia coli RecO protein (from UniProt P0A7H3 1-242) (natural protein)”, the stoichiometry N (RecO per RecR tetramer) in the experiment with E. coli RecR tetramer [1] turned out to be 2. In the experiment with E. coli RecR tetramer [2], this molecule had a K3 (association constant, first RecO to RecR4) of 500000 M⁻¹ and a K4 (association constant, second RecO to RecR4O) of 4e+08 M⁻¹. Besides, the stoichiometry N (RecO per RecR tetramer) in the experiment with E. coli RecR tetramer [3] turned out to be 2.
For the molecule “Escherichia coli RecR protein (from UniProt P0A7H6 1-201) (natural protein)”, the Ka in [4] is 72000 M⁻¹; in [5] it was 1.65e+06 M⁻¹; in experiment [7], 267000 M⁻¹; in [8], 34900 M⁻¹; in [9] it was under 500 M⁻¹; in [10], 4320 M⁻¹. Also, the Ka in experiment [11] turned out to be 149000 M⁻¹; in [12] it was 216000 M⁻¹; in experiment [13], 568000 M⁻¹. Moreover, the stoichiometry N (in general, the number of molecules, sites or subunits per partner or assembly) in [6] was 2 and 4; in experiment [12], 4.

B1: RecO–P15 complex (complex, E. coli)
chain: T2 chain
peptide: PSNEPPMDFDDDIPF
notes: RecO, E. coli; as m1; the 15 C-terminal amino acids of E. coli SSB; as m3; 29.1 kDa; also called RecO in the presence of a 6-fold molar excess of P15; source: RecO from E. coli BL21(DE3)pLysS, purified; P15 bought: WatsonBio; mixed with a six-fold molar excess of P15 over RecO; copies: 1 + 1
Take B1: the “stoichiometry N” value was 2 RecO-P15 per RecR tetramer in the experiment with E. coli RecR tetramer [14], 2 RecO per RecR tetramer with E. coli RecR tetramer [15] and 1 RecO per RecR tetramer with E. coli RecR tetramer [16].

B2: P15 peptide (the 15 C-terminal amino acids of E. coli SSB) (peptide)
peptide: PSNEPPMDFDDDIPF
notes: the 15 C-terminal amino acids of E. coli SSB; also called SSB-Ct peptide; SSB C-terminal acidic tip peptide; source: bought: WatsonBio
Regarding B2, the Ka in experiment [17] is 1.2e+07 M⁻¹. In addition, the dH in experiment [18] is under 1 kcal/mol.
